From article PMC5027613, “A second DNA binding site in human BRCA2 promotes homologous recombination” come the findings set out here.

Series [1] has as its target T1, BRCA2 CTD;DSS1 (human;human?, UniProt P51587;P60896 2474-3190;1-70, |). The series can be described thus: EMSA; EMSA: 25 mM Tris acetate pH 7.5, 1 mM DTT, 1 mM MgCl2, 2 mM CaCl2, 0.2 uM nucleotides DNA, 1 h at 37 C; 6% native PAGE in 1x TAE. The note with it: protein: recombinant;recombinant; tags: 6xHis-SUMO;; copies: 1;1; label: 5'-32P on oAC405; blunt.
For series [2], the target named is T2, BRCA2T1 (human, UniProt P51587 1-250).
T2 sequence: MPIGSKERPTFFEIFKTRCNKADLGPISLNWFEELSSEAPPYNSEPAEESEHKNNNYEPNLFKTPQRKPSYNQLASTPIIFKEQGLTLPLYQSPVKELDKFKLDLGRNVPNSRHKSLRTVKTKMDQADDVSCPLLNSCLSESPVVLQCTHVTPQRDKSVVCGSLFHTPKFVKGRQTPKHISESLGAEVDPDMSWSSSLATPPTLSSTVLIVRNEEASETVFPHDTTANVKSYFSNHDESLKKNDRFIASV
The series can be described thus: EMSA; up to 300 nM; EMSA: 25 mM Tris acetate pH 7.5, 1 mM DTT, 1 mM MgCl2, 2 mM CaCl2, 0.2 uM nucleotides DNA, 1 h at 37 C; 6% native PAGE in 1x TAE. The note with it: protein: recombinant; tags: N-terminal 2xMBP, 2 NLS; label: 5'-32P. Background: In EMSA bound probe runs differently from free probe, usually more slowly.

The target of the next series is BRCA2 full length (human, UniProt P51587 1-3418). The series can be described thus: EMSA; ~100 times lower concentration needed than BRCA2T2; EMSA: 25 mM Tris acetate pH 7.5, 1 mM DTT, 1 mM MgCl2, 2 mM CaCl2, 0.2 uM nucleotides DNA, 1 h at 37 C; 6% native PAGE in 1x TAE. The note with it: protein: recombinant; tags: N-terminal EGFP-MBP; label: 5'-32P.
The target in series [3] is T1, BRCA2 CTD;DSS1. The series can be described thus: EMSA; lower yield than BRCA2T2; EMSA: 25 mM Tris acetate pH 7.5, 1 mM DTT, 1 mM MgCl2, 2 mM CaCl2, 0.2 uM nucleotides DNA, 1 h at 37 C; 6% native PAGE in 1x TAE. To be noted: protein: recombinant;recombinant, tags: 6xHis-SUMO;, copies: 1;1.
Series [4] addresses T3, BRCA2T2 (NTD) (human, UniProt P51587 251-500).
T3 sequence: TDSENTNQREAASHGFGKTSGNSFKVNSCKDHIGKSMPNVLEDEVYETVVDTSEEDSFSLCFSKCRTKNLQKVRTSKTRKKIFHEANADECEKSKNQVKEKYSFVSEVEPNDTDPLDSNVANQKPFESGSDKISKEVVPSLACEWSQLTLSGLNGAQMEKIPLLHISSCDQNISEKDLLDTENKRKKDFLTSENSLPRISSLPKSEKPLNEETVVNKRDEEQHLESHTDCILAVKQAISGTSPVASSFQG
The series can be described thus: EMSA; yield similar to dsDNA (~40%) at 1.5 uM; EMSA: 25 mM Tris acetate pH 7.5, 1 mM DTT, 1 mM MgCl2, 2 mM CaCl2, 0.2 uM nucleotides DNA, 1 h at 37 C; 6% native PAGE in 1x TAE. The note with it: protein: recombinant; tags: N-terminal 2xMBP, 2 NLS; label: 5'-32P.

Series [5] deals with T3, BRCA2T2 (NTD). The series can be described thus: EMSA; higher yield than CTD; EMSA: 25 mM Tris acetate pH 7.5, 1 mM DTT, 1 mM MgCl2, 2 mM CaCl2, 0.2 uM nucleotides DNA, 1 h at 37 C; 6% native PAGE in 1x TAE. To be noted: protein: recombinant, tags: N-terminal 2xMBP, 2 NLS.
Series [6] addresses T1, BRCA2 CTD;DSS1. The series can be described thus: EMSA; ~40-fold lower yield than BRCA2T2 at 1 uM; EMSA: 25 mM Tris acetate pH 7.5, 1 mM DTT, 1 mM MgCl2, 2 mM CaCl2, 0.2 uM nucleotides DNA, 1 h at 37 C; 6% native PAGE in 1x TAE. To be noted: protein: recombinant;recombinant; tags: 6xHis-SUMO;; copies: 1;1; label: 32P; 1:2 1:3, two 42 bp duplexes with 83 nt gap.
Series [7] concerns the target T3, BRCA2T2 (NTD). The series can be described thus: EMSA; EMSA: 25 mM Tris acetate pH 7.5, 1 mM DTT, 1 mM MgCl2, 2 mM CaCl2, 0.2 uM nucleotides DNA, 1 h at 37 C; 6% native PAGE in 1x TAE. The note with it: protein: recombinant; tags: N-terminal 2xMBP, 2 NLS; label: 32P; 1:2 1:3, two 42 bp duplexes with 83 nt gap.
The target in series [8] is T3, BRCA2T2 (NTD). The series can be described thus: pull-down; titrated out by excess free dT40; EMSA: 25 mM Tris acetate pH 7.5, 1 mM DTT, 1 mM MgCl2, 2 mM CaCl2, 0.2 uM nucleotides DNA, 1 h at 37 C; 6% native PAGE in 1x TAE. The note with it: protein: recombinant; tags: N-terminal 2xMBP, 2 NLS; label: biotin, on streptavidin beads.
Series [9] deals with T2, BRCA2T1. The series can be described thus: pull-down; not titrated out by free dT40; EMSA: 25 mM Tris acetate pH 7.5, 1 mM DTT, 1 mM MgCl2, 2 mM CaCl2, 0.2 uM nucleotides DNA, 1 h at 37 C; 6% native PAGE in 1x TAE. The note with it: protein: recombinant; tags: N-terminal 2xMBP, 2 NLS; label: biotin, on streptavidin beads.

B1: 40 bp dsDNA (oAC405/oAC406) (dsDNA)
DNA 1: TAATACAAAATAAGTAAATGAATAAACAGAGAAAATAAAG
DNA 2: CTTTATTTTCTCTGTTTATTCATTTACTTATTTTGTATTA
Consider B1, for which the binding result with BRCA2 CTD;DSS1 [1] is “no binding”.
On to TTTTTTTTTTTTTTTTTTTTTTTTTTTTTTTTTTTTTTTT (ssDNA) [dT40 (oAC379)], for which, in the series with BRCA2T1 [2], the binding result is reported as “no binding”.

B2: 167mer ssDNA (oAC423) (ssDNA)
DNA: CTGCTTTATCAAGATAATTTTTCGACTCATCAGAAATATCCGTTTCCTATATTTATTCCTATTATGTTTTATTCATTTACTTATTCTTTATGTTCATTTTTTATATCCTTTACTTTATTTTCTCTGTTTATTCATTTACTTATTTTGTATTATCCTTATCTTATTTA
With B2, the binding result with BRCA2 full length, with BRCA2 CTD;DSS1 [3] (label: 5'-32P) and in the series with BRCA2T2 (NTD) [4] was “binds” throughout.

B3: 3' overhang (oAC423 + oAC490 as stated) (mixed)
DNA 1: B2 DNA
DNA 2: TAAATAAGATAAGGATAATACAAAATAAGTAAATGAATAAAC
Consider B3, for which the binding result in the series with BRCA2 CTD;DSS1 [3] (label: 32P on oAC490) and in the series with BRCA2T2 (NTD) [5] (label: 32P on oAC490) was “binds” throughout.

B4: gapped DNA (oAC423 + oAC403 + oAC490) (mixed)
DNA 1: B2 DNA
DNA 2: CGGATATTTCTGATGAGTCGAAAAATTATCTTGATAAAGCAG
DNA 3: B3 DNA 2
As to B4, the binding result with BRCA2 CTD;DSS1 [6] is “binds”. In the series with BRCA2T2 (NTD) [7], the binding signal was ~40 fold higher yield than CTD at 1 uM.

B5: 5' overhang (oAC423 + oAC403 as stated) (mixed)
DNA 1: B2 DNA
DNA 2: B4 DNA 2
Turning to B5, the binding result in the series with BRCA2 CTD;DSS1 [3] (label: 32P) and with BRCA2T2 (NTD) [5] (label: 32P) was “binds” in each case.

B6: dT80 biotin (ssDNA)
DNA: TTTTTTTTTTTTTTTTTTTTTTTTTTTTTTTTTTTTTTTTTTTTTTTTTTTTTTTTTTTTTTTTTTTTTTTTTTTTTTTT
modifications: 3'-biotin
For the molecule B6, the figures for the binding result in the series with BRCA2T2 (NTD) [8] and with BRCA2T1 [9] were “binds” and “no binding”, respectively.
